*1 amine or outer side, *2 acyl side, *3 side chain or, on linkers, in order; H or OH if unused. Side-chain parts run from the residue outwards. The star is where a group is joined. C18 diacid = O=C(O)CCCCCCCCCCCCCCCCC(=O)*; γGlu = O=C(O)[C@H](CCC(=O)[*:2])N[*:1]; Isovaleryl = CC(C)CC(=O)*; Ahx = NCCCCCC(=O)O
T1: human NPY5 receptor (human, UniProt Q15761 1-445)
T1 sequence (looked up): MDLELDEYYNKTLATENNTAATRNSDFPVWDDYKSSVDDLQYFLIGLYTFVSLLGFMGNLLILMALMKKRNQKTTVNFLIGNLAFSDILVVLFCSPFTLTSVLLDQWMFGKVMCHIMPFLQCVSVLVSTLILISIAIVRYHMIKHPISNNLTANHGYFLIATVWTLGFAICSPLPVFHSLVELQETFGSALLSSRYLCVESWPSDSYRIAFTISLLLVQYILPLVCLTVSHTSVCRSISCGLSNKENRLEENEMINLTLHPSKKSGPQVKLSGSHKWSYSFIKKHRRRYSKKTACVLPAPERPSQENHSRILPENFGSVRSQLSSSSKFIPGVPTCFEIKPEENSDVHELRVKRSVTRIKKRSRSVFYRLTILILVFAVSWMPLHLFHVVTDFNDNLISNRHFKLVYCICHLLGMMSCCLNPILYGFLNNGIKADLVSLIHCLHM

T2: human NPY2 receptor (human, UniProt P49146 1-381)
T2 construct: whole, on cells; also called hNPY2-R; hNPY2R
T2 sequence (looked up): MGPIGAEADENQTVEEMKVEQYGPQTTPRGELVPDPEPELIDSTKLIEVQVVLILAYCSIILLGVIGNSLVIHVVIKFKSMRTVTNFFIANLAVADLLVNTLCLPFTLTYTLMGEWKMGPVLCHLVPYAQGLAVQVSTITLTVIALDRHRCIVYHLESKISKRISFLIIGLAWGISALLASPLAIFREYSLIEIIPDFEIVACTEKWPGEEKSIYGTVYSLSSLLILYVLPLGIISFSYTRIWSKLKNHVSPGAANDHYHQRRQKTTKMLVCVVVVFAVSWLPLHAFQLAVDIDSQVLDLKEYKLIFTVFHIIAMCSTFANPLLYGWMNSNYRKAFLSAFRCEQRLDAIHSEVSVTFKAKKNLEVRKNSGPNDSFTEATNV


biological target: T1, human NPY5 receptor; experiment: cell-based or functional assay

EC50, HTRF cAMP Gi assay [nM] | Binder
> 5000 | Isovaleryl-APEK([Ahx-γGlu-C18 diacid])PEADASPEEIQRYYVSLRHYYNWLTRQRY-NH2 [Compound 140]

biological target: T2, human NPY2 receptor; experiment: RLB: displacement of 125I-PYY(1-36) from hNPY2R membranes

Binder | Ki [nM]
Isovaleryl-APEK([Ahx-γGlu-C18 diacid])PEADASPEEIQRYYVSLRHYYNWLTRQRY-NH2 [Compound 140] | 1.41
Isovaleryl-APAK([Ahx-γGlu-C18 diacid])PEEDATPEELQRYYISLRHYYNWLTRQRY-NH2 (SMILES CC[C@H](C)[C@H](NC(=O)[C@H](Cc1ccc(O)cc1)NC(=O)[C@H](Cc1ccc(O)cc1)NC(=O)[C@H](CCCNC(=N)N)NC(=O)[C@H](CCC(N)=O)NC(=O)[C@H](CC(C)C)NC(=O)[C@H](CCC(=O)O)NC(=O)[C@H](CCC(=O)O)NC(=O)[C@@H]1CCCN1C(=O)[C@@H](NC(=O)[C@H](C)NC(=O)[C@H](CC(=O)O)NC(=O)[C@H](CCC(=O)O)NC(=O)[C@H](CCC(=O)O)NC(=O)[C@@H]1CCCN1C(=O)[C@H](CCCCNC(=O)CCCCCNC(=O)CC[C@H](NC(=O)CCCCCCCCCCCCCCCCC(=O)O)C(=O)O)NC(=O)[C@H](C)NC(=O)[C@@H]1CCCN1C(=O)[C@H](C)NC(=O)CC(C)C)[C@@H](C)O)C(=O)N[C@@H](CO)C(=O)N[C@@H](CC(C)C)C(=O)N[C@@H](CCCNC(=N)N)C(=O)N[C@@H](Cc1c[nH]cn1)C(=O)N[C@@H](Cc1ccc(O)cc1)C(=O)N[C@@H](Cc1ccc(O)cc1)C(=O)N[C@@H](CC(N)=O)C(=O)N[C@@H](Cc1c[nH]c2ccccc12)C(=O)N[C@@H](CC(C)C)C(=O)N[C@H](C(=O)N[C@@H](CCCNC(=N)N)C(=O)N[C@@H](CCC(N)=O)C(=O)N[C@@H](CCCNC(=N)N)C(=O)N[C@@H](Cc1ccc(O)cc1)C(N)=O)[C@@H](C)O) [Compound 190] | 1.95
Isovaleryl-APEK([Ahx-γGlu-C18 diacid])PGADASPEKLQRYYVSLRHYYHKLTRQRY-NH2 (SMILES CC(C)CC(=O)N[C@@H](C)C(=O)N1CCC[C@H]1C(=O)N[C@@H](CCC(=O)O)C(=O)N[C@@H](CCCCNC(=O)CCCCCNC(=O)CC[C@H](NC(=O)CCCCCCCCCCCCCCCCC(=O)O)C(=O)O)C(=O)N1CCC[C@H]1C(=O)NCC(=O)N[C@@H](C)C(=O)N[C@@H](CC(=O)O)C(=O)N[C@@H](C)C(=O)N[C@@H](CO)C(=O)N1CCC[C@H]1C(=O)N[C@@H](CCC(=O)O)C(=O)N[C@@H](CCCCN)C(=O)N[C@@H](CC(C)C)C(=O)N[C@@H](CCC(N)=O)C(=O)N[C@@H](CCCNC(=N)N)C(=O)N[C@@H](Cc1ccc(O)cc1)C(=O)N[C@@H](Cc1ccc(O)cc1)C(=O)N[C@H](C(=O)N[C@@H](CO)C(=O)N[C@@H](CC(C)C)C(=O)N[C@@H](CCCNC(=N)N)C(=O)N[C@@H](Cc1c[nH]cn1)C(=O)N[C@@H](Cc1ccc(O)cc1)C(=O)N[C@@H](Cc1ccc(O)cc1)C(=O)N[C@@H](Cc1c[nH]cn1)C(=O)N[C@@H](CCCCN)C(=O)N[C@@H](CC(C)C)C(=O)N[C@H](C(=O)N[C@@H](CCCNC(=N)N)C(=O)N[C@@H](CCC(N)=O)C(=O)N[C@@H](CCCNC(=N)N)C(=O)N[C@@H](Cc1ccc(O)cc1)C(N)=O)[C@@H](C)O)C(C)C) [Compound 174] | 0.21

Other lines, results leading:

Ki [nM] | Binder
0.74 | Isovaleryl-APEK([Ahx-γGlu-C18 diacid])PEAPASPEELQRYYVSLRHYYNWLTRQRY-NH2 (SMILES CC(C)CC(=O)N[C@@H](C)C(=O)N1CCC[C@H]1C(=O)N[C@@H](CCC(=O)O)C(=O)N[C@@H](CCCCNC(=O)CCCCCNC(=O)CC[C@H](NC(=O)CCCCCCCCCCCCCCCCC(=O)O)C(=O)O)C(=O)N1CCC[C@H]1C(=O)N[C@@H](CCC(=O)O)C(=O)N[C@@H](C)C(=O)N1CCC[C@H]1C(=O)N[C@@H](C)C(=O)N[C@@H](CO)C(=O)N1CCC[C@H]1C(=O)N[C@@H](CCC(=O)O)C(=O)N[C@@H](CCC(=O)O)C(=O)N[C@@H](CC(C)C)C(=O)N[C@@H](CCC(N)=O)C(=O)N[C@@H](CCCNC(=N)N)C(=O)N[C@@H](Cc1ccc(O)cc1)C(=O)N[C@@H](Cc1ccc(O)cc1)C(=O)N[C@H](C(=O)N[C@@H](CO)C(=O)N[C@@H](CC(C)C)C(=O)N[C@@H](CCCNC(=N)N)C(=O)N[C@@H](Cc1c[nH]cn1)C(=O)N[C@@H](Cc1ccc(O)cc1)C(=O)N[C@@H](Cc1ccc(O)cc1)C(=O)N[C@@H](CC(N)=O)C(=O)N[C@@H](Cc1c[nH]c2ccccc12)C(=O)N[C@@H](CC(C)C)C(=O)N[C@H](C(=O)N[C@@H](CCCNC(=N)N)C(=O)N[C@@H](CCC(N)=O)C(=O)N[C@@H](CCCNC(=N)N)C(=O)N[C@@H](Cc1ccc(O)cc1)C(N)=O)[C@@H](C)O)C(C)C) [Compound 192]
2.87 | Isovaleryl-APAK([Ahx-γGlu-C18 diacid])PEEEASPEELQRYYVSLRHYYNWLTRQRY-NH2 (SMILES CC(C)CC(=O)N[C@@H](C)C(=O)N1CCC[C@H]1C(=O)N[C@@H](C)C(=O)N[C@@H](CCCCNC(=O)CCCCCNC(=O)CC[C@H](NC(=O)CCCCCCCCCCCCCCCCC(=O)O)C(=O)O)C(=O)N1CCC[C@H]1C(=O)N[C@@H](CCC(=O)O)C(=O)N[C@@H](CCC(=O)O)C(=O)N[C@@H](CCC(=O)O)C(=O)N[C@@H](C)C(=O)N[C@@H](CO)C(=O)N1CCC[C@H]1C(=O)N[C@@H](CCC(=O)O)C(=O)N[C@@H](CCC(=O)O)C(=O)N[C@@H](CC(C)C)C(=O)N[C@@H](CCC(N)=O)C(=O)N[C@@H](CCCNC(=N)N)C(=O)N[C@@H](Cc1ccc(O)cc1)C(=O)N[C@@H](Cc1ccc(O)cc1)C(=O)N[C@H](C(=O)N[C@@H](CO)C(=O)N[C@@H](CC(C)C)C(=O)N[C@@H](CCCNC(=N)N)C(=O)N[C@@H](Cc1c[nH]cn1)C(=O)N[C@@H](Cc1ccc(O)cc1)C(=O)N[C@@H](Cc1ccc(O)cc1)C(=O)N[C@@H](CC(N)=O)C(=O)N[C@@H](Cc1c[nH]c2ccccc12)C(=O)N[C@@H](CC(C)C)C(=O)N[C@H](C(=O)N[C@@H](CCCNC(=N)N)C(=O)N[C@@H](CCC(N)=O)C(=O)N[C@@H](CCCNC(=N)N)C(=O)N[C@@H](Cc1ccc(O)cc1)C(N)=O)[C@@H](C)O)C(C)C) [Compound 199]
1.38 | Isovaleryl-APAK([Ahx-γGlu-C18 diacid])PEADAEPEEIQRYYVSLRHYYNWLTRQRY-NH2 (SMILES CC[C@H](C)[C@H](NC(=O)[C@H](CCC(=O)O)NC(=O)[C@H](CCC(=O)O)NC(=O)[C@@H]1CCCN1C(=O)[C@H](CCC(=O)O)NC(=O)[C@H](C)NC(=O)[C@H](CC(=O)O)NC(=O)[C@H](C)NC(=O)[C@H](CCC(=O)O)NC(=O)[C@@H]1CCCN1C(=O)[C@H](CCCCNC(=O)CCCCCNC(=O)CC[C@H](NC(=O)CCCCCCCCCCCCCCCCC(=O)O)C(=O)O)NC(=O)[C@H](C)NC(=O)[C@@H]1CCCN1C(=O)[C@H](C)NC(=O)CC(C)C)C(=O)N[C@@H](CCC(N)=O)C(=O)N[C@@H](CCCNC(=N)N)C(=O)N[C@@H](Cc1ccc(O)cc1)C(=O)N[C@@H](Cc1ccc(O)cc1)C(=O)N[C@H](C(=O)N[C@@H](CO)C(=O)N[C@@H](CC(C)C)C(=O)N[C@@H](CCCNC(=N)N)C(=O)N[C@@H](Cc1c[nH]cn1)C(=O)N[C@@H](Cc1ccc(O)cc1)C(=O)N[C@@H](Cc1ccc(O)cc1)C(=O)N[C@@H](CC(N)=O)C(=O)N[C@@H](Cc1c[nH]c2ccccc12)C(=O)N[C@@H](CC(C)C)C(=O)N[C@H](C(=O)N[C@@H](CCCNC(=N)N)C(=O)N[C@@H](CCC(N)=O)C(=O)N[C@@H](CCCNC(=N)N)C(=O)N[C@@H](Cc1ccc(O)cc1)C(N)=O)[C@@H](C)O)C(C)C) [Compound 198]
8.32 | Isovaleryl-APEK([Ahx-γGlu-C18 diacid])PEEDATPEEIQRYYESLRHYYNWLTRQRY-NH2 (SMILES CC[C@H](C)[C@H](NC(=O)[C@H](CCC(=O)O)NC(=O)[C@H](CCC(=O)O)NC(=O)[C@@H]1CCCN1C(=O)[C@@H](NC(=O)[C@H](C)NC(=O)[C@H](CC(=O)O)NC(=O)[C@H](CCC(=O)O)NC(=O)[C@H](CCC(=O)O)NC(=O)[C@@H]1CCCN1C(=O)[C@H](CCCCNC(=O)CCCCCNC(=O)CC[C@H](NC(=O)CCCCCCCCCCCCCCCCC(=O)O)C(=O)O)NC(=O)[C@H](CCC(=O)O)NC(=O)[C@@H]1CCCN1C(=O)[C@H](C)NC(=O)CC(C)C)[C@@H](C)O)C(=O)N[C@@H](CCC(N)=O)C(=O)N[C@@H](CCCNC(=N)N)C(=O)N[C@@H](Cc1ccc(O)cc1)C(=O)N[C@@H](Cc1ccc(O)cc1)C(=O)N[C@@H](CCC(=O)O)C(=O)N[C@@H](CO)C(=O)N[C@@H](CC(C)C)C(=O)N[C@@H](CCCNC(=N)N)C(=O)N[C@@H](Cc1c[nH]cn1)C(=O)N[C@@H](Cc1ccc(O)cc1)C(=O)N[C@@H](Cc1ccc(O)cc1)C(=O)N[C@@H](CC(N)=O)C(=O)N[C@@H](Cc1c[nH]c2ccccc12)C(=O)N[C@@H](CC(C)C)C(=O)N[C@H](C(=O)N[C@@H](CCCNC(=N)N)C(=O)N[C@@H](CCC(N)=O)C(=O)N[C@@H](CCCNC(=N)N)C(=O)N[C@@H](Cc1ccc(O)cc1)C(N)=O)[C@@H](C)O) [Compound 191]

Reference: patent publication US20260015399A1 (Boehringer Ingelheim, published 2026)
